In PMC1326212, “Dimerization and enzymatic activity of fungal 17β-hydroxysteroid dehydrogenase from the short-chain dehydrogenase/reductase superfamily” (BMC Biochemistry, 2005):

Columns and labels:
[1] = target: 17β-HSD type 1 (Homo sapiens) (UniProt P14061); details: cited from earlier work
[2] = test system: NC(=O)c1ccc[n+]([C@@H]2O[C@H](COP(=O)(O)OP(=O)(O)OC[C@H]3O[C@@H](n4cnc5c(N)ncnc54)[C@H](OP(=O)(O)O)[C@@H]3O)[C@@H](O)[C@H]2O)c1; experiment: purified protein; assay type: biochemical, Curvularia lunata; details: oxidation of 4-estrene-17β-ol-3-one (100 μM), 100 mM phosphate pH 8.0, 25°C, 1% DMF, varied: cofactor
[3] = test system: NC(=O)C1=CN([C@@H]2O[C@H](COP(=O)(O)OP(=O)(O)OC[C@H]3O[C@@H](n4cnc5c(N)ncnc54)[C@H](OP(=O)(O)O)[C@@H]3O)[C@@H](O)[C@H]2O)C=CC1; experiment: purified protein; assay type: biochemical, Curvularia lunata; details: reduction of 4-estrene-3,17-dione (100 μM), 100 mM phosphate pH 8.0, 25°C, 1% DMF, varied: cofactor
[4] = target: 17β-HSDcl-His111Ala (Cochliobolus lunatus); experiment: SEC; gel filtration on TSK G4000 SWxl, 100 mM phosphate buffer with 150 mM NaCl, pH 7.0; about 40 μg protein in 100 μl injected, 1.0 ml/min; mass by calibration standards
17β-HSDcl [5] = target: T1, 17β-HSDcl (Curvularia lunata, UniProt O93874, H111A); experiment: intrinsic fluorescence quenching titration; assay type: binding
T1 construct: gene 17HSDcl; GST fusion (pGex-17β-HSDcl) from E. coli JM107, GST cut off with thrombin; 28 kDa subunit; wild type and H111A homodimeric, H111L and R129D monomeric
From the text: (§1) intrinsic fluorescence quenching titration on 17β-HSDcl

17β-HSDcl [6] = target: T2, 17β-HSDcl (Curvularia lunata, UniProt O93874, R129D); experiment: intrinsic fluorescence quenching titration; assay type: binding
T2 construct: gene 17HSDcl; GST fusion (pGex-17β-HSDcl) from E. coli JM107, GST cut off with thrombin; 28 kDa subunit; wild type and H111A homodimeric, H111L and R129D monomeric
From the text: as §1

17β-HSDcl [7] = target: T3, 17β-HSDcl (Curvularia lunata, UniProt O93874, H111L); experiment: intrinsic fluorescence quenching titration; assay type: binding
T3 construct: gene 17HSDcl; GST fusion (pGex-17β-HSDcl) from E. coli JM107, GST cut off with thrombin; 28 kDa subunit; wild type and H111A homodimeric, H111L and R129D monomeric
From the text: as §1

[8] = target: the molecule itself; experiment: SEC; gel filtration on TSK G4000 SWxl, 100 mM phosphate buffer with 150 mM NaCl, pH 7.0; about 40 μg protein in 100 μl injected, 1.0 ml/min; mass by calibration standards

For 17β-HSD type 1 (from UniProt P14061), the Kd [1] is given as < 5 pM.

For 17β-HSDcl (Curvularia lunata; H111A), the Km [2] was 4.6 µM, the kcat [2] was 0.9 s⁻¹ and the kcat/Km [2] was 190000 M⁻¹ s⁻¹. It also gave a Km [3] of 50.6 µM, a kcat [3] of 2.4 s⁻¹ and a kcat/Km [3] of 47000 M⁻¹ s⁻¹.

17β-HSDcl-His111Ala (enzyme) showed a stoichiometry N [4] of 2.

For NC(=O)c1ccc[n+]([C@@H]2O[C@H](COP(=O)(O)OP(=O)(O)OC[C@H]3O[C@@H](n4cnc5c(N)ncnc54)[C@H](OP(=O)(O)O)[C@@H]3O)[C@@H](O)[C@H]2O)c1 [NADP^+], the Kd (17β-HSDcl [5]) was 5.8 µM, the Kd (17β-HSDcl [6]) was 12.8 µM and the Kd (17β-HSDcl [7]) was 19.9 µM.

B1: 17β-hydroxysteroid dehydrogenase from Cochliobolus lunatus, wild type (enzyme, UniProt O93874 1-270, looked up)
chain: MPHVENASETYIPGRLDGKVALVTGSGRGIGAAVAVHLGRLGAKVVVNYANSTKDAEKVVSEIKALGSDAIAIKADIRQVPEIVKLFDQAVAHFGHLDIAVSNSGVVSFGHLKDVTEEEFDRVFSLNTRGQFFVAREAYRHLTEGGRIVLTSSNTSKDFSVPKHSLYSGSKGAVDSFVRIFSKDCGDKKITVNAVAPGGTVTDMFHEVSHHYIPNGTSYTAEQRQQMAAHASPLHRNGWPQDVANVVGFLVSKEGEWVNGKVLTLDGGAA
notes: expected molecular mass 28 kDa; also called 17β-HSDcl; fungal 17β-HSD; source: E. coli JM107, GST fusion, purified (Glutathione Sepharose, thrombin cleavage)
With B1 the “stoichiometry N” value [8] was 2.
